From publication PMC3089910 (Analytical biochemistry, 2010) come the findings set out here.

Usually stoichiometry N stands for the number of molecules, sites or subunits per partner or assembly.

For data set [1], the target named is human lactoferrin (hLF), iron-free, in the presence of Zn2+ (human). Kind of data set: AUC.
The data set “AUC” deals with the molecule itself. Kind of data set: AUC.

B1: rTp34, Tp34 from Treponema pallidum, in the presence of Zn2+ (natural protein)
chain: CGGGGEHQHGEEMMAAVPAPDAEGAAGFDEFPIGEDRDVGPLHVGGVYFQPVEMHPAPGAQPSKEEADCHIEADIHANEAGKDLGYGVGDFVPYLRVVAFLQKHGSEKVQKVMFAPMNAGDGPHYGANVKFEEGLGTYKVRFEIAAPSHDEYSLHIDEQTGVSGRFWSEPLVAEWDDFEWKGPQW
Take B1: the stoichiometry N (in data set [1]; in “AUC”) was 2 each time.
